These results are taken from paper PMC5299547 (Analytical Chemistry, 2017).

The target of this assay is T1, tryptophan synthase, beta subunit (Salmonella typhimurium, UniProt P0A2K1 2-397).
T1 sequence: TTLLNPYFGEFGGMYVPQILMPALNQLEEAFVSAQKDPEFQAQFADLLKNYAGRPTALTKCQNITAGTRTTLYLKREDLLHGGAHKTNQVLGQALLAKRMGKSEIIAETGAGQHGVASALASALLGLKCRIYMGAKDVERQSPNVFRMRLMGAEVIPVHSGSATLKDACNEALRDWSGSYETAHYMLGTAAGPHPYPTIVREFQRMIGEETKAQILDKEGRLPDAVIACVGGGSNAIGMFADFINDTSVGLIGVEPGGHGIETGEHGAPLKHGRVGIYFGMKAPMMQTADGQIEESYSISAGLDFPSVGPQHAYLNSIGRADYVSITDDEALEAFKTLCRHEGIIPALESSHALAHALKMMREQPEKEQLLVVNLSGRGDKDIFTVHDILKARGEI
Kind of assay: native MS; 10 μM purified complex buffer-exchanged in 200 mM ammonium acetate, electrosprayed (Synapt G2Si); subcomplexes generated in solution with 10–40% methanol, DMSO or acetonitrile. The settings on record: both partners purified.

B1: tryptophan synthase, alpha subunit (natural protein, Salmonella typhimurium)
chain: MERYENLFAQLNDRREGAFVPFVTLGDPGIEQSLKIIDTLIDAGADALELGVPFSDPLADGPTIQNANLRAFAAGVTPAQCFEMLALIREKHPTIPIGLLMYANLVFNNGIDAFYARCEQVGVDSVLVADVPVEESAPFRQAALRHNIAPIFICPPNADDDLLRQVASYGRGYTYLLSRSGVTGAENRGALPLHHLIEKLKEYHAAPALQGFGISSPEQVSAAVRAGAAGAISGSAIVKIIEKNLASPKQMLAELRSFVSAMKAASRA
As to B1, the binding result was “binds”.
